The format of data set [1] is biochemical. The source says: The most remarkable property of the PAF acetylhydrolase is its marked specificity for substrates with a short residue at the sn-2 position of the substrate. This strict specificity distinguishes PAF acetylhydrolase from other forms of PLA2. […] Native plasma PAF-AH has several other properties that distinguish it from other phospholipases including calcium-independence and resistance to compounds that modify sulfhydryl groups or disrupt disulfides.

The next data set has as its system PAF-induced pleurisy. The experiment in a line: PAF-induced pleurisy (Evans blue vascular leakage). It is filed as in vivo, rat. The conditions noted are these: 300 μl PAF-AH (1500 μmol/ml/hour) IV 15 minutes before 2.0 nmol PAF, 1 hour. The procedure: Fifteen minutes later the rats received an 100 μl injection of PAF (2.0 nmol) into the pleural space. One hour following PAF challenge, rats were sacrificed and the pleural fluid was collected by rinsing the cavity with 3 ml heparinized phosphate buffered saline. The degree of vascular leak was determined by the quantity of Evans blue dye in the pleural space which was quantitated by absorbance at 620 nm.

The test system of data set [2] is antigen-induced eosinophil recruitment. The experiment in a line: Antigen-induced eosinophil recruitment to trachea of OVA-sensitized mice. It is filed as in vivo, mouse. The conditions noted are these: 750 units IV 30 minutes before and 24 hours after aerosolized OVA; 48 hours. The procedure:
The accumulation of eosinophils in the airway is a characteristic feature of late phase immune responses which occur in asthma, rhinitis and eczema. BALB/c mice (Charles River) were sensitized by two intraperitoneal injections consisting of 1 μg of ovalbumin (OVA) in 4 mg of aluminum hydroxide (Imject alum, Pierce Laboratories, Rockford, Ill.) given at a 2 week interval. Fourteen days following the second immunization, the sensitized mice were challenged with either aerosolized OVA or saline as a control.
Prior to challenge mice were randomly placed into four groups, with four mice/group. Mice in groups 1 and 3 were pretreated with 140 μl of control buffer consisting of 25 mM tris, 0.5M NaCl, 1 mM EDTA and 0.1% Tween 80 given by intravenous injection. Mice in groups 2 and 4 were pretreated with 750 units of PAF-AH (activity of 5,500 units/ml given in 140 μl of PAF-AH buffer). Thirty minutes following administration of PAF-AH or buffer, mice in groups 1 and 2 were exposed to aerosolized PBS as described below, while mice in groups 3 and 4 were exposed to aerosolized OVA. Twenty-four hours later mice were treated a second time with either 140 μl of buffer (groups 1 and 3) or 750 units of PAF-AH in 140 μl of buffer (groups 2 and 4) given by intravenous injection.
Eosinophil infiltration of the trachea was induced in the sensitized mice by exposing the animals to aerosolized OVA. […]

For another data set, the system named is zymosan A-induced edema. The experiment in a line: Rat foot edema model, zymosan A-induced. Format: in vivo. The conditions noted are these: 2000 U IV 15 minutes before zymosan A, 2 hours. As for the experimental part:
Six to eight-week-old female Long Evans rats (Charles River, Wilmington, Mass.), weighing 180-200 grams, were used for all experiments. Prior to experimental manipulations, animals were anesthetized with a mixture of the anesthetics Ketaset (Fort Dodge Laboratories, Fort Dodge, Iowa), Rompun (Miles, Shawnee Mission, Kans.), and Ace Promazine (Aveco, Fort Dodge, Iowa) administered subcutaneously at approximately 2.5 mg Ketaset, 1.6 mg Rompun, 0.2 mg Ace Promazine per animal per dose. Edema was induced in the foot by administration of either PAF or zymosan as follows. […] Animals received 50 μl PAF (final dose of 0.96 nmoles) subcutaneously between the hind foot pads, and edema was assessed after 1 hour and again after 2 hours in some experiments. […] Animals received 50 μl of zymosan (final dose of 500 μg) subcutaneously between the hind foot pads and edema was assessed after 2 hours.
Edema was quantitated by measuring the foot volume immediately prior to administration of PAF or zymosan and at indicated time point post-challenge with PAF or zymosan. Edema is expressed as the increase in foot volume in milliliters. […]
Rats (N=4 per group) were pretreated IV with either PAF-AH (2000 U in 300 μl carrier) or carrier alone. Fifteen minutes after pretreatment, groups received either PAF or zymosan A, and foot volume was assessed after 1 and 2 hours, respectively.

A value given as a limit tells only on which side of the number the result lay.

These results are taken from patent US5847088A, “Antibodies specific for platelet-activating factor acetylhydrolase” (ICOS Corporation, priority 1995, dated 1998).

B1: PAF-AH: Recombinant human plasma platelet-activating factor acetylhydrolase (beginning at Ile42 of SEQ ID NO:8) expressed in E. coli (protein, UniProt Q13093 22-441, looked up)
Platelet-activating factor …: FDWQYINPVAHMKSSAWVNKIQVLMAAASFGQTKIPRGNGPYSVGCTDLMFDHTNKGTFLRLYYPSQDNDRLDTLWIPNKEYFWGLSKFLGTHWLMGNILRLLFGSMTTPANWNSPLRPGEKYPLVVFSHGLGAFRTLYSAIGIDLASHGFIVAAVEHRDRSASATYYFKDQSAAEIGDKSWLYLRTLKQEEETHIRNEQVRQRAKECSQALSLILDIDHGKPVKNALDLKFDMEQLKDSIDREKIAVIGHSFGGATVIQTLSEDQRFRCGIALDAWMFPLGDEVYSRIPQPLFFINSEYFQYPANIIKMKKCYSPDKERKMITIRGSVHQNFADFTFATGKIIGHMLKLKGDIDSNVAIDLSNKASLAFLQKHLGLHKDFDQWDCLIEGDDENLIPGTNINTTNQHIMLQNSSGIEKYN
As to B1, the “degradation of glutaroylPC (oxidized phospholipid)” value in data set [1] is on record as “rapidly degraded”. In the data set with PAF-induced pleurisy, the “reduction in inflammation (vascular leakage, Evans blue in pleural space)” value was over 80%. Also, in data set [2], the “eosinophils in submucosal tissue of trachea” value is listed as “very few eosinophils in the submucosal tissue”. In addition, in the data set with zymosan A-induced edema, the “effect on zymosan induced edema” value is on record as “failed to block”.
